Results on 1 substance are retold here after patent publication US20120034693A1.

Experiment [1] has as its target mutant A3G D128K, cmyc-tagged, expressed from pD3GFPD128K / D3GFPD128K (human) (UniProt Q9HC16). The experiment is described as follows: cell-based or functional assay.
Experiment [2] deals with wild type Apolipoprotein B mRNA-editing enzyme-catalytic polypeptide-like 3G (A3G), cmyc-tagged, expressed from pD3GFP / D3GFP (human) (UniProt Q9HC16). The experiment is described as follows: cell-based or functional assay.

As to “HIV-1 viral infectivity factor (Vif), expressed from the helper plasmid pcHelp”, the infectivity of HIV-GFP virus produced from vector-carrying 293T cells in the presence of HIV-1 Vif, percent of control was 1 % of control in experiment [1] and 89 % of control in experiment [2]. Besides, the inhibition of HIV-GFP replication by the A3G-expressing plasmid in the presence of HIV-1 Vif (GFP flow cytometry of infected 293T cells) in experiment [1] was 90%.
